Assay results as given in patent US20160333113A1 (NATIONAL CANCER CENTER, published 2016).

Columns and labels:
[1] = molecular target: T1, human tissue factor (hTF), purified, construct not stated (human, UniProt P13726 33-251, limits assumed); assay: SPR, Biacore 2000, antibody immobilized on CM5 chip, purified hTF in flow
T1 construct: The SPR and the chimeric-antibody ELISA say only 'purified hTF' / 'hTF'; also called purified hTF; human TF
Description: The anti-hTF monoclonal antibodies (No. 1849 and No. 1859) were each immobilized on the surface of a Biacore CM5 chip. The CM5 chip, which had each antibody immobilized thereon, was set in a SPR device, and an antigen-containing buffer containing purified hTF was allowed to flow through its flow path. The dissociation constant between each of the antibodies and hTF was determined by this measurement system. It should be noted that the measurement conditions were as follows.

recombinant hTF = recombinant hTF (human, UniProt P13726 33-251); assay: cell-based or functional assay

| Binder | Kd [1] | Prolonged coagulation time ratio (prothrombin time ratio, PBS control = 1) (recombinant hTF) |
| --- | --- | --- |
| anti-hTF monoclonal antibody (No. 1849) (antibody, IgG2b, V domains shown, Rat hybridoma IgG purified on Protein G; constant regions are not; also called rat anti-hTF monoclonal antibody (No. 1849)) VH: EVQLVESGGGLVQSGRSLKLSCAASGFTFSDYNMAWIRQAPKKGLEWVAAIIYDGTRTYYRDSVRGRFTISRDNAKSTLYLQVDSLRSEDTATYYCATGDSYTNFAYWGQGTLVTVSS VL: EIVLTQSPTTMAASPGEKVTLTCRASSSLSYMHWYQQRSGTSPKLWIYETSKLASGVPNRFSGSGSGTSFSLTIDSMETEDAATYYCQQGNSYPRTFGGGTKLELK | 91.4 pM | 5.54 ratio relative to PBS |
| anti-hTF monoclonal antibody (No. 1859) (antibody, IgG2a, V domains shown, Rat hybridoma IgG purified on Protein G; constant regions are not) VH: EVMLVESGPGLVQPSQTLSLICTVSGFSLTDYSVHWVRQPPGKGLEWVGVMWSGGTTTFNSGLKSRLSISRDTSKSQVFLKMYSLRTEDTAVYYCTRERAGSPLNWFAYWGQGTLVTVSS VL: DIVMTQSPASLSASLEEIVTITCQASQDIGNYLSWYQQKPGKSPHLLIHSSTSLADGVPSRFSGSRSGTQYSLKINRLQVEDTGVYYCLQHYSGSRTFGGGTNLELK | 189 pM | 1.22 ratio relative to PBS |
